This is an account of results in IntAct's records for PubMed 15066285.

The labels stand for the following.
B1: Protein pop-1 (Caenorhabditis elegans), Q10666 (parent)
chain: MMADEELGDEVKVFRRDEDADDDPMISGETSEQQLADDKKEAVMEAELDGAGRNPSIDVLKSAFPKVEPMSPSFPGLMSHFSPGYSAAALPMFMPLFMNPYAAALRSPSLMFPMGAMSPTFPMFPPSPVYGAAIAAAAAKQHFENMAPLNMRAGHPMNQMGMPPYMHPSSMAPQNVDRRAQGGGKAKKDDHVKKPLNAFMWFMKENRKALLEEIGNNEKQSAELNKELGKRWHDLSKEEQAKYFEMAKKDKETHKERYPEWSARENYAVNKKKTKKRRDKSIPSENNDQKKCRARFGVNNTEMWCKFCKRKKKCEYATDRSGGSDITDSQDGRGTSGAYSSSSESPSPKANAGIALTTQQQQAAMMHTMLMQMRLGSTTGASTHVPSPLASSSAGRSPLDANASDSESDVEEEEDEQIDPTVMQQTHDMLMQESMCTI
partner: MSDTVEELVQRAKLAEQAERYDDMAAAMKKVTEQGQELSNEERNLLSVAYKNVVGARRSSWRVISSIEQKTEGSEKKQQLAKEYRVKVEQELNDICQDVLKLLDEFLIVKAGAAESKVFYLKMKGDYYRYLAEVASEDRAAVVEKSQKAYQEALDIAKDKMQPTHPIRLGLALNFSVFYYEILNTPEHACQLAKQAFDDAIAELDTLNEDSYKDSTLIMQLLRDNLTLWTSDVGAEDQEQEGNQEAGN

In this assay the parent is B1. The conditions noted are these: with 14331_caeel par-5, P41932.
As to S107A;S109A;S118A;T120A;S127A, the “effect of a mutation on the interaction” value is recorded as “disrupting interaction”.
